Test results: doi:10.1101/284836

Columns and labels:
[1] = tested on: EcCRP-HIS (Escherichia coli); assay: EMSA
[2] = tested on: HiCRP-HIS (Haemophilus influenzae); assay: EMSA

| Substance | binding signal [1] [% shifted] | binding signal [2] [% shifted] |
| --- | --- | --- |
| pilA promoter (CRP-S), Fig. 3 bait | 30 |  |
| pilA-N promoter (CRP-N), Fig. 3 bait | 77 | 6 |
